A short description of this series: self-splicing fitness, log relative to wild type (ln ratio); higher = more splicing; Tetrahymena group I intron in knt gene, E. coli kanamycin selection, DiMSum; sequences stand for … in CUCUCU…GGAGGGAAAAGUUAUCAGGCAUGCACCUGGUAGCUAGUCUUUAAACCAAUAGAUUGCAUCGGUUUAAAAGGCAAGACCGUCAAAUUGCGGGAAAGGGGUCAACAGCCGUUCAGUACCAAGUCUCAGGGGAAACUUUGAGAUGGCCUUGCAAAGGGUAUGGUAAUAAGCUGACGGACAUGGUCCUAACCACGCAGCCAAGUCCUAAGUCAACAGAUCUUCUGUUGAUAUGGAUGCAGUUCACAGACUAAAUGUCGGUCGGGGAAGAUGUAUUCUUCUCAUAAGAUAUAGUCGGACCUCUCCUUAAUGGGAGCUAGCGGAUGAAGUGAUGCAACACUGGAGCCGCUGGGAACUAAUUUGUAUGCGAAAGUAUAUUGAUUAGUUUUGGAGUACUCGUGGUCG
The method in brief: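 DiMSum derived fitness as the error-weighted combination of fold changes across replicates, kanamycin versus no kanamycin, normalised to wild type. E. coli BL21(DE3) held the library, which randomised all eight P1ex-region intron nucleotides within the knt kanamycin-resistance gene on pET-22b(+). Six replicate transformations grew overnight at 37°C or 30°C on LB agar with or without 25 μg/mL kanamycin, also containing 100 μg/mL carbenicillin, 50 μM IPTG and 0.2% rhamnose, and pooled colonies were amplicon-sequenced on an Illumina HiSeq 2500.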

± gives the uncertainty stated by the source.

For the sequence AGCUAGCAAUAUUACGAUGA, the “self-splicing fitness (ln)” value is -2.51 ± 0.21 (30 °C) and -2.54 ± 0.15 (37 °C).

Consider AGCUAGCAAUAUUACGCCGU, for which the “self-splicing fitness (ln)” value is -1.23 ± 0.13 (30 °C) and -1.2 ± 0.16 (37 °C).

For AGCUAGCAAUAUUACGCUCU, the “self-splicing fitness (ln)” value is, setting by setting: (30 °C) -2.24 ± 0.18; (37 °C) -1.57 ± 0.24.

On to AGCUAGCAAUAUUACGGCGA, for which the “self-splicing fitness (ln)” value (30 °C) is -0.581 ± 0.081 and the “self-splicing fitness (ln)” value (37 °C) is 0.0269 ± 0.12.

As to AGCUAGCAAUAUUACGGGAC, the “self-splicing fitness (ln)” value (30 °C) is -3.37 ± 0.23 and the “self-splicing fitness (ln)” value (37 °C) was -1.84 ± 0.24.

As to AGCUAGCAAUAUUACGGUUU, the “self-splicing fitness (ln)” value runs as follows: (30 °C) -2.66 ± 0.14; (37 °C) -1.96 ± 0.14.

As to AGCUAGCAAUAUUACGUAUG, the “self-splicing fitness (ln)” value reads like this: (30 °C) -2.52 ± 0.15; (37 °C) -0.829 ± 0.12.

As for AGCUAGCAAUAUUACGUAUU, the “self-splicing fitness (ln)” value was -3.8 ± 0.23 (30 °C) and -1.35 ± 0.15 (37 °C).

As for AGCUAGCAAUAUUACGUCCC, the “self-splicing fitness (ln)” value (30 °C) was -1.33 ± 0.21 and the “self-splicing fitness (ln)” value (37 °C) was found to be 0.355 ± 0.22.

With AGCUAGCAAUAUUACGUGUA, the “self-splicing fitness (ln)” value was -3.86 ± 0.18 (30 °C) and -1.48 ± 0.12 (37 °C).

Consider AGCUAGCAAUAUUACGUUCC, for which the “self-splicing fitness (ln)” value reads like this: (30 °C) -0.609 ± 0.11; (37 °C) -1.76 ± 0.17.

Turning to AGCUAGCAAUAUUACGUUGC, the “self-splicing fitness (ln)” value (30 °C) is -3.91 ± 0.25 and the “self-splicing fitness (ln)” value (37 °C) was -3.13 ± 0.28.

In the case of AGGAAGCAAUAUUACGAAUG, the “self-splicing fitness (ln)” value was -4.53 ± 0.46 (30 °C) and -2.8 ± 0.28 (37 °C).

Consider AGGAAGCAAUAUUACGACCA, for which the “self-splicing fitness (ln)” value by setting is: (30 °C) -0.504 ± 0.06; (37 °C) -0.317 ± 0.096.

Turning to AGGAAGCAAUAUUACGACGA, the “self-splicing fitness (ln)” value is -0.678 ± 0.092 (30 °C) and -0.0243 ± 0.13 (37 °C).

For the sequence AGGAAGCAAUAUUACGAGCG, the “self-splicing fitness (ln)” value by setting is: (30 °C) -1.96 ± 0.24; (37 °C) -1.08 ± 0.22.

Consider AGGAAGCAAUAUUACGAUUU, for which the “self-splicing fitness (ln)” value is, setting by setting: (30 °C) -0.378 ± 0.078; (37 °C) 0.0421 ± 0.11.

Turning to AGGAAGCAAUAUUACGCAUA, the “self-splicing fitness (ln)” value is, setting by setting: (30 °C) -2.39 ± 0.18; (37 °C) -1.15 ± 0.16.

Turning to AGGAAGCAAUAUUACGCGCA, the “self-splicing fitness (ln)” value is -0.555 ± 0.13 (30 °C) and 0.268 ± 0.16 (37 °C).

Regarding AGGAAGCAAUAUUACGCUAC, the “self-splicing fitness (ln)” value (30 °C) is -3.48 ± 0.41 and the “self-splicing fitness (ln)” value (37 °C) is -2.99 ± 0.47.

Regarding AGGAAGCAAUAUUACGCUCG, the “self-splicing fitness (ln)” value is, setting by setting: (30 °C) -0.643 ± 0.16; (37 °C) -0.865 ± 0.21.

Consider AGGAAGCAAUAUUACGCUGU, for which the “self-splicing fitness (ln)” value (30 °C) was -2.29 ± 0.29.

Consider AGGAAGCAAUAUUACGGACA, for which the “self-splicing fitness (ln)” value reads like this: (30 °C) -0.516 ± 0.12; (37 °C) -0.384 ± 0.15.

As for AGGAAGCAAUAUUACGGACC, the “self-splicing fitness (ln)” value (30 °C) was -0.483 ± 0.27 and the “self-splicing fitness (ln)” value (37 °C) is 0.238 ± 0.27.

As for AGGAAGCAAUAUUACGGCAA, the “self-splicing fitness (ln)” value is -1.52 ± 0.096 (30 °C) and -0.574 ± 0.12 (37 °C).

Regarding AGGAAGCAAUAUUACGGCAU, the “self-splicing fitness (ln)” value is, setting by setting: (30 °C) -1.28 ± 0.13; (37 °C) -0.506 ± 0.15.

Turning to AGGAAGCAAUAUUACGGGAG, the “self-splicing fitness (ln)” value (30 °C) is -2.22 ± 0.19 and the “self-splicing fitness (ln)” value (37 °C) was -2.95 ± 0.37.

AGGAAGCAAUAUUACGGGCC: the “self-splicing fitness (ln)” value reads like this: (30 °C) -3.5 ± 0.42; (37 °C) -0.18 ± 0.2.

On to AGGAAGCAAUAUUACGGGGC, for which the “self-splicing fitness (ln)” value (30 °C) is -3.49 ± 0.26 and the “self-splicing fitness (ln)” value (37 °C) was -2.49 ± 0.24.

Consider AGGAAGCAAUAUUACGGGUG, for which the “self-splicing fitness (ln)” value was -2.14 ± 0.091 (30 °C) and -1.98 ± 0.11 (37 °C).

With AGGAAGCAAUAUUACGGUAG, the “self-splicing fitness (ln)” value runs as follows: (30 °C) -3.37 ± 0.36; (37 °C) -1.6 ± 0.31.

Consider AGGAAGCAAUAUUACGUAUC, for which the “self-splicing fitness (ln)” value is, setting by setting: (30 °C) -3.45 ± 0.22; (37 °C) -2.88 ± 0.15.

As for AGGAAGCAAUAUUACGUCAC, the “self-splicing fitness (ln)” value (30 °C) is -3.41 ± 0.2 and the “self-splicing fitness (ln)” value (37 °C) is -3.65 ± 0.3.

AGGAAGCAAUAUUACGUCAG: the “self-splicing fitness (ln)” value runs as follows: (30 °C) -2.97 ± 0.25; (37 °C) -2.41 ± 0.33.

As for AGGAAGCAAUAUUACGUCAU, the “self-splicing fitness (ln)” value (30 °C) is -3.32 ± 0.16 and the “self-splicing fitness (ln)” value (37 °C) is -0.295 ± 0.12.

In the case of AGGAAGCAAUAUUACGUCCA, the “self-splicing fitness (ln)” value (30 °C) was -0.764 ± 0.14 and the “self-splicing fitness (ln)” value (37 °C) is -0.0963 ± 0.22.

Regarding AGGAAGCAAUAUUACGUUGC, the “self-splicing fitness (ln)” value is -3.23 ± 0.37 (30 °C) and -1.29 ± 0.41 (37 °C).

Regarding AGGCAGCAAUAUUACGAACA, the “self-splicing fitness (ln)” value reads like this: (30 °C) -1.45 ± 0.11; (37 °C) -0.167 ± 0.14.

Regarding AGGCAGCAAUAUUACGAAUC, the “self-splicing fitness (ln)” value is -2.29 ± 0.29 (30 °C) and -2.07 ± 0.24 (37 °C).

In the case of AGGCAGCAAUAUUACGAGCA, the “self-splicing fitness (ln)” value by setting is: (30 °C) -1.96 ± 0.12; (37 °C) -0.225 ± 0.12.

For the sequence AGGCAGCAAUAUUACGAUAC, the “self-splicing fitness (ln)” value (30 °C) is -2.06 ± 0.27 and the “self-splicing fitness (ln)” value (37 °C) is -1.42 ± 0.26.

As to AGGCAGCAAUAUUACGAUCC, the “self-splicing fitness (ln)” value was -0.222 ± 0.051 (30 °C) and -0.211 ± 0.061 (37 °C).

In the case of AGGCAGCAAUAUUACGCACA, the “self-splicing fitness (ln)” value (30 °C) is -0.332 ± 0.092 and the “self-splicing fitness (ln)” value (37 °C) turned out to be 0.275 ± 0.11.

As for AGGCAGCAAUAUUACGCCCG, the “self-splicing fitness (ln)” value (30 °C) is -1.26 ± 0.12 and the “self-splicing fitness (ln)” value (37 °C) is -0.431 ± 0.2.

For AGGCAGCAAUAUUACGCGGA, the “self-splicing fitness (ln)” value by setting is: (30 °C) -2.08 ± 0.14; (37 °C) -0.664 ± 0.1.

As for AGGCAGCAAUAUUACGCUAC, the “self-splicing fitness (ln)” value (30 °C) is -2.44 ± 0.23.

AGGCAGCAAUAUUACGCUGC: under “37 °C”, the “self-splicing fitness (ln)” value is -2.5 ± 0.38.

As to AGGCAGCAAUAUUACGCUUC, where the note is “37 °C”, the “self-splicing fitness (ln)” value is -1.31 ± 0.28.

For AGGCAGCAAUAUUACGCUUU, the “self-splicing fitness (ln)” value is, setting by setting: (30 °C) -3.17 ± 0.35; (37 °C) -1.41 ± 0.18.

With AGGCAGCAAUAUUACGGAAA, the “self-splicing fitness (ln)” value by setting is: (30 °C) -2.91 ± 0.48; (37 °C) -2.14 ± 0.24.

For the sequence AGGCAGCAAUAUUACGGACG, the “self-splicing fitness (ln)” value (30 °C) was -0.899 ± 0.067 and the “self-splicing fitness (ln)” value (37 °C) was -0.218 ± 0.095.

With AGGCAGCAAUAUUACGGCCG, the “self-splicing fitness (ln)” value by setting is: (30 °C) -1.12 ± 0.13; (37 °C) -0.985 ± 0.17.

In the case of AGGCAGCAAUAUUACGGGAG, the “self-splicing fitness (ln)” value was -4.08 ± 0.22 (30 °C) and -1.53 ± 0.12 (37 °C).

With AGGCAGCAAUAUUACGGUGC, the “self-splicing fitness (ln)” value by setting is: (30 °C) -3.54 ± 0.16; (37 °C) -2.89 ± 0.2.

For AGGCAGCAAUAUUACGUACA, the “self-splicing fitness (ln)” value reads like this: (30 °C) -0.585 ± 0.071; (37 °C) -0.742 ± 0.093.

For the sequence AGGCAGCAAUAUUACGUACC, the “self-splicing fitness (ln)” value is -0.0574 ± 0.12 (30 °C) and 0.0331 ± 0.15 (37 °C).

Consider AGGCAGCAAUAUUACGUCAA, for which the “self-splicing fitness (ln)” value is, setting by setting: (30 °C) -1.25 ± 0.098; (37 °C) -0.465 ± 0.095.

AGGCAGCAAUAUUACGUCCG: the “self-splicing fitness (ln)” value is, setting by setting: (30 °C) -1.16 ± 0.12; (37 °C) -0.519 ± 0.13.

Turning to AGGCAGCAAUAUUACGUGAC, the “self-splicing fitness (ln)” value (30 °C) was -3.86 ± 0.21 and the “self-splicing fitness (ln)” value (37 °C) is -1.84 ± 0.14.

Take AGGCAGCAAUAUUACGUGUC: the “self-splicing fitness (ln)” value (30 °C) is -3.18 ± 0.15 and the “self-splicing fitness (ln)” value (37 °C) was -2.58 ± 0.19.

With AGGCAGCAAUAUUACGUUGU, the “self-splicing fitness (ln)” value (30 °C) was -2.88 ± 0.15 and the “self-splicing fitness (ln)” value (37 °C) is -2.52 ± 0.21.

Values taken from the supplement of paper PMC7877785.
